Among the data in a protein production outcome set (Wang et al. 2014) are protein production values, retold here.
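Note: failed if final PepcDB status was selected cloned or expressed and not failed if soluble or beyond.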

The data set is described as follows: label from the status in PepcDB records.
As for “MTVRLTFMCATAGGTTRDAVFGDGLLSERGLRRARAAGATLPPYSLAIRAPSVRCAQTAYALGLPTTLEPALRDLDYGTWRGRTVGEVVADEPYGYSAWLTDPDAAPHGGESVRRLCRRIANWLSSVPPYPGRALVITEPSVVRASLVHALSAPVTAFRHFDVPPLSTVSLTLSDGHWIVRPGRVTPDRVGTSRAVPTPYDAAEGRTALLWGEATPA”, the protein production result is reported as “failed”.

Turning to “MTVRSRFFTEAEGKAVGVENAAAKGDVLLVCEHASATIPQKYGTLGLSADVLSSHAAWDPGALAVARLLSEKFHATLVYQRFSRLVYDCNRPPESPSAMPVKSEIYDIPGNFDLDEAERFARTSALYVPFHDRVSEIIAERQAAGRKVVVVTIHSFTPVYHGRFREVEIGILHDNDSRLADAMLAGAEGASLTVRRNDPYGPEDGVTHTLRLHALPDGLLNVMIEIRNDLIANEGEQAAIAGFLHELMGKALSSIEE”, the protein production result is given as “not failed”.

In the case of “MTVSDPAGPRCFCRDCLVDLDMGVRRCSACGSPRLVRHRALSSLTIAHIDCDAFYATVEKRDNPDIADKPVIIGGGKRGVVSAACYIARTYGVRSAMPMFKALDACPHAIVIRPDMAKYVRVGREVRQAMQALTPLVEPLSIDEAFLDLSGTERVHGMIPAKVLARFARNIERDIGISVSVGLSCNKFLAKIASDLDKPRGFAALDQEEARLMLASRPVGFIFGVGPATQERLVQRGFRIIADLQKADEIEMMRQFPSDGRRLWRLARGIDDRRVEPDRGAKTISSETTFETDIRDFATLEKILWRLCEKTSSRLKSSELAGSTVTLKLKTADFRQRTRSQSIAAPTQLAAKIFSICREMLAKEIDGTAFRLMGAGVSALREGSPADDTDMLDRRAAHAERAVDSLRKKFGNSAVIRGIAYDGPETGQQE”, the protein production result was “failed”.

In the case of “MTVSQDILLTDHFKQWIEIFKKGKVSDGTYRKYLYTLSVLKKHFSTATIKTMNRVKYQEMLNEFAEGHSDSSVKQINVHVRASLENLLDDFIIKNDFTKGAISLEHHHHHH”, the protein production result is reported as “not failed”.

On to “MTVTSPRIATILLLIVCFIWGVEFVPIDLAIEVMPTNTFNAIRFAVATLSMLPLLWFVQKKNKGNSKPIDYVLLIRSGMLLGFFLFIGFYTQTEGMRFTTVTNAGFITGLCVPLVPVLGFLIFRNVVPKSVWIGVVTATAGLYMLTIGDKLVFNKGDILVLICAFGFAGHIIMTDRFVDNLPIIPLSIVQIFAVSIYSTIAIFIGPDPVFYYQDAEPVSWYQQLFTPLMIFAILVSGILGTAYAFWAQSVSQTLLKPHKVALIFAAEPVFACIAAWVFLDEVLGEKGMIGAGLILAGMLVSELGDRKKQPELRALDQTAALK”, for which the protein production entry is recorded as “failed”.

As to “MTWLFCDRIATKIDKNNGISMITHNFNTLDLLTSPVWIVSPFEEQLIYANSAARLLMQDLTFSQLRTGPYSVSSQKELPKYLSDLQNQHDIIEILTVQRKEEETALSCRLVLRKLTEAEPVIIFEGIEAPATLGLKASRSANYQRKKQGFYARFFLTNSAPMLLIDPSRDGQIVDANLAALNFYGYNHETMCQKHTWEINMLGRRVMPIMHEISHLPGGHKPLNFVHKLADGSTRHVQTYAGPIEIYGDKLMLCIVHDITEQKRLEEQLEHAAHHDAMTGLLNRRQFYHITEPGQMQHLAIAQDYSLLLIDTDRFKHINDLYGHSKGDEVLCALARTLESCARKGDLVFRWGGEEFVLLLPRTPLDTALSLAETIRVSVAKVSISSLPRFTVSIGVAHHEGNESIDELFKRVDDALYRAKNDGRNRVLAA”, the protein production entry was “failed”.

“MTWSFTLGRLFGSELKVHVTFFLLIGWIGVSAYQMGGWPSAVENTAFVLALFACVVAHEYGHALTARRYGIRTPDITLLPIGGLARLDRMPEKPGQEIVVALAGPAVNVAIWAALTLVGVDTRFETLAAIDSAEPDFLGRLAMVNLFLAVFNLIPAFPMDGGRVLRAALSLTMDRVRATRIAAAAGQLVALLFGFAGLSGGNPVLVLIAVFVFIAANAEAQDVAMRAVTRRLLARDAMITRFEALGPTDTLATAAQAVLHTTQHEFPVLDGEGHLLGFVTRARLFAALAADHPRSDPAETVMDREIPQVPLASGLETVLDALYQGAPAVAVTSADGRMLGYVTRENVGELMVIQGR”: the protein production result is given as “failed”.

On to “MTYKSLPVAEKIQSYWNRRARLVIVTSFTILCAAATIYFHMILGVEIVFTHLFYIPMVFAAVWFGRRSFIVTAFLGTVLLVTHALASLGGFQDDVMRLSVMFFVNAITVILSESIGESEEALAESEEKYRTIVESARDAIITVDGNGSIVSWNSAAEKIFGYRAAEMMGRHIDTIITEENLEKHDFNRIIDREISIMVTDVEGVRKDGTRVPLEISVFSWNYMDEKFITAVIRDVTERKMAENALIESERKFRAVFDGVEDIITIVEIRENGLPGKYIEVNRAAVEKLGYSRDELLRMTPADMGVSREQSYDIIKNLLRSGKVTFNRTYISRDGRRIPVEVNSRLLELGEMKVAVSVARDITQRLENERRLRESEEKYRSLFDLSPEYILLLDPEDGRILDVNSTLAGTLGIPSEELRGRSIYELEFLSDDVKTEFRSKIEVIERDGTLEPYEMVLTDPYGREYTVRIYNKLIHAEGRECLLIVLNDISDLKRTQSMLEKSLAEKELLLKEIHHRVKNNLMIISSLLSLQSRQAKDRETMDLFRESENRTRSMVLIHERLYRSEDLKNIDLAEYLGRLASEIFRSYSADSRIRLKLEIDELKVDVETAVPLGLIVNELLTNAVKHAFPDGEGTVTVSLRKRNGTVTLEVSDDGAGFPEDIDWESSPSLGLQLVRKPH”, for which the protein production entry is given as “failed”.

For “MVAAIIAGAAVAAAAYAGKYGIEAWQAFKLRPVRPRMRKFYEGGFQATMNRREAALILGVRESVAAEKVKEAHRRVMVANHPDAGGSHYLASKINEAKDMMLGKTKNSGSAF”, the protein production result is on record as “failed”.

For the sequence “MVADSFVYSFVSSPDLSVLVLLCVLLLTALRQVGSLRLQIWQVMTLGAFSVLLLGEISPQEALRAINIDVLLFLFGAFCVGEALNRSGYLAWIGGRIVSRAKNTDQLVLLVIFSTGLLSAVLMNDTLAIMGTPLVLRFSRKYGVSPKLMLFALAFGITTGSVMSPIGNPQNLLIAIDGNLDSPFVVFLSSLAVPTMINLVLVYAVLKLFFSREFGKPALIHTEELISDPELAEISKKALFLLLALITCKILLVEFLPAWDFSLSWIALFSASPILLSKRRTEVVKNIDWATLVFFVSMFVLMESVWISGTCQGLLYRMSPQLGSVPTILALSIGLSQLISNVPFVALYLPAMGSGVSQGQLMALAAGSTIAGNLLILGAASNVIILQNAEKEGETFSFMEFAKIGLLISFLNAIIYFIFL”, the protein production result is “failed”.

“MVARDTTAPQVKIVNPVTGNVSGSNVPISVNASDDSGASGITYALYIDGVLKATGKGSTLGYNWNIRNVAAGAHTVQVVAKDAAGNSASSSVSVTVVKLEHHHHHH”: the protein production entry is “failed”.

Regarding “MVCFASLFEEVSMHTCPLCHNQHTRHYFEDKHREYLQCEQCYLVFVNPDQRLDAETEKAHYDLHENNPEDIGYRRFLSRIADPITERISPQSNGIDFGCGPGPTLSLMLEEAGHNMALYDIYYHPDTAVLEKQYDFMTATEVIEHLYHPDVVWKQWLNLVKPGGWIGLMTKMVIDVEAFKSWHYKNDPTHVVFFSRDTFQFLAERDKLELEFIGNDVILLRKTQLEHHHHHH”, the protein production entry is reported as “not failed”.

Turning to “MVDQNPEEYYSKGILQYDDGNYTESIDLFEKAIQLNPEESKYWLMKGKALYNLERYEEAVDCYNYVINVIEDEYNKDVWAAKADALRHIEGKEVEAEIAEARAKLEHHHHHH”, the protein production entry is on record as “not failed”.

For the sequence “MVDYKTVRCHFGDVELTKWITITDGFTVFSGADYDPELKEIGGKDGSIFIGTKTKHKVIKVPFWVKYNTIEDYDALQLALSSKKPKMLMFSHIPGRYYLAVQVGDLNFKEIKMNGFGEITFIVADAYAHSTSYRRIKDYTQDGNKMTFKIKNNGTAPAFPIFRIKHLGENGYIGITNETGAFAVGSPEEEDGTIVHRNETLFDYSKAIAQALEGAPNVAKLNYMPPTFDSELKRMRLDNILGSGKGGEYVAIGARGTTPGYGEHVGTRTFIINPDSNGEYTLNEHLWWKQIFIATAQDQKGFLKLCVTGENDEFLYGIETYKRKNGFETEYNFFALDDDGVGWRFYKQFEFQADRNYHNPFSMNRSRAVEIFREEDKFRIYFNGAHHHVTVPSLKGKKSRKIHLAMGTCSDSSKYINYNLFEKVNFEKMGVSHYNNIVNKYQPGDEVIINFENDTVSTKDIDSIQDVVLGSKMISIPPGESELVVHLSSWVAALPDISIDFEERYK”, the protein production entry is reported as “failed”.

For the sequence “MVEADRPGKLFIGGLNTETNEKALEAVFGKYGRIVEVLLMKDRETNKSRGFAFVTFESPADAKDAARDMNGKSLDGKAIKVEQATKPSFE”, the protein production result is “failed”.

For “MVEENQLQSLKDVAKQAPVHRKLDIQEWKTAEGAKVLFVEAHELPMFDLRLTFAAGSSQDAGTPGLSMLTNAMLNEGVPGKDTTAIAAGFEDLGASFSNGSYRDMAVAGLRSLSEADKRTQALKLFEQVIGQPTFPEDALARIKNQVLAGFEYQKQNPGKLAGLELFKRLYGEHPYAHSSDGDEKSVPTISREQLQAFHKKAYAAGNVVIALVGDLSRQEAEAIAAEVSKALPQGPALAKTVQPETPKPGLTHIDFPSEQTHLMLAQLGIDRQDPDYAALYLGNQILGGGGFGTRLMDQVREKRGLTYGIYSGFTAMQARGPFMINFQTRAELSEGALKLVQDIVRDYLANGPTQKELDDAKRELAGSFPLSTASNADIVGQLGAIGFYGLPLDYLESFLKQVEGLSVEQVRTAMAKHLDADAFVIVSAGLEHHHHHH”, the protein production entry is “not failed”.

“MVEFELLRSLGIMLLAALGVVLVARTARVPNIVAYIGAGLLLGPALGVLTVTHTIELIAEFGIILLLFLVGLELSLDKIKAVGTTAFVAGGVQMGGTALGGGLLAGLVGVPVVEAVVVAVAIMFSSTVVVVKMLEKQSDLDAPYGQIAVGVLLVQDLVVVMVLTFVAGLAGPGELAWADVARGLGQAFVGMVLLGGLIAAAARYVLPPAIQWISRMTEGLFIWSLFWCFLVVLGAEALHLSPELGAFLAGIALAQLPQCHELRQRVHPLMNFFIIVFFVSLGLQMELGAALARWPLALALAAFVMVVKPLLFFGVLPRLGHGEETSFRTGLSLAQISEFSLIFGALALSSGLIDEALLSVITLVGLVTFALSSFLLLYSDRLYAAVKPYRPLAWLGARQEAPAPPPDGLQGHVIVVGLNTLGRCLVDRLTAAGETVVAVDTDPEKLARRSVSTVHGNAVHETTREAADWEDAKLVVSSLSIEGTNNLLAYHAQRAGVPCSIHAFDRTSENSLRTFGVDHLIRSKHEGARRLLDELKSRAVLS”: the protein production entry is “failed”.

Take “MVEGLGRIGFGLFGLAVLIGITWLFSSNRRAIDWKLVATGLALQISFAALVLLVPGGRDVFDALGKGFVKVLSFVNEGSTFIFGNLMNIDSYGFIFAFQVLPTIIFFSALMGVLYHLGVMQMVVRAMAWAITKVMRVSGAETTSVCASVFIGQTEAPLTVRPYIPKMTQSELLTMMIGGMAHIAGGVLAAYVGMLGGSDPAQQAFYAKHLLAASIMAAPATLVVAKLLVPETGTPLTRGTVKMEVEKTTSNVIDAAAAGAGDGLRLALNIGAMLLAFIALIALINAPLTWLGEVTGATALLGRPTNLSTIFGYVLAPIAWVIGTPWVDATTVGSLIGQKVVINEFVAYSELSRIVKGEVRGVGLSAEGRLIATYALCGFANFSSIAIQIGGIGGLAPERRHDLANFGLRAVLGGSIATFMTATIAGVLSHFG”: the protein production result is recorded as “failed”.

Regarding “MVEIIPVSTTLELRAADESHVPALHQLVLKNKAWLQQSLDWPQYVTSQEETRKHVQGNILLHQRGYAKMYLIFCQNEMAGVLSFNAIEPINKAAYIGYWLDESFQGQGIMSQSLQALMTHYARRGDIRRFVIKCRVDNQASNAVARRNHFTLEGCMKQAEYLNGDYHDVNMYARIIDAD”, the protein production entry was “not failed”.

“MVEMNKRGQFFIIGGVILSIGLILFFLLGFNSYTSDGSYLTVFKMKDVKNSIESCLINSLTSNSNLSKNLDMLKNNYKDEGIEINYKKIIFSNIRYEAKNLTFNFSLYNGNFSYNISNYGFGGAFNGSLNVSNYVFSKNLLLNISENGSVTGSFNITGSYVNVFVYDRFGNLILNETIYNNSNEKSLYYYILNVSKEGILLYLLWQRMFLTTHWQKMYPL”: the protein production entry is “failed”.
